Experimental data reported in publication PMC6679477, “Optimization of a nicotine degrading enzyme for potential use in treatment of nicotine addiction” (BMC Biotechnology, 2019).

B1: wt NicA2 (Pseudomonas putida S16) (protein)
chain: MSDKTKTNEGFSRRSFIGSAAVVTAGVAGLGAIDAASATQKTNRASTVKGGFDYDVVVVGGGFAGATAARECGLQGYRTLLLEARSRLGGRTFTSRFAGQEIEFGGAWVHWLQPHVWAEMQRYGLGVVEDPLTNLDKTLIMYNDGSVESISPDEFGKNIRIAFEKLCHDAWEVFPRPHEPMFTERARELDKSSVLDRIKTLGLSRLQQAQINSYMALYAGETTDKFGLPGVLKLFACGGWNYDAFMDTETHYRIQGGTIGLINAMLTDSGAEVRMSVPVTAVEQVNGGVKIKTDDDEIITAGVVVMTVPLNTYKHIGFTPALSKGKQRFIKEGQLSKGAKLYVHVKQNLGRVFAFADEQQPLNWVQTHDYSDELGTILSITIARKETIDVNDRDAVTREVQKMFPGVEVLGTAAYDWTADPFSLGAWAAYGVGQLSRLKDLQAAEGRILFAGAETSNGWHANIDGAVESGLRAGREVKQLLS
notes: full-length, C-terminal His6 tag kept, expressed in E. coli, purified, 52 kDa on SDS-PAGE; FAD enzyme

Experiments:
[1] = system: T1, CN1CCC[C@H]1c1cccnc1; test: residual nicotine by GC; progress curves fitted in KinTek, Km derived from kcat/Km and kcat; format: biochemical, Pseudomonas putida; details: rat serum, 37 °C, 250 nM (40 ng/mL) nicotine, O2 as oxidant
T1 construct: full-length, C-terminal His6 tag kept, expressed in E. coli, purified, 52 kDa on SDS-PAGE; FAD enzyme
Source text: (§1) residual nicotine by GC; progress curves fitted in KinTek, Km derived from kcat/Km and kcat on wt NicA2

[2] = substrate: CN1CCC[C@H]1c1cccnc1; test: as above; format: biochemical, Pseudomonas putida; details: rat serum, 37 °C, 250 nM (40 ng/mL) nicotine, O2 as oxidant
Source text: as §1

Molecule | Km [1] [µM] | kcat [1] [s⁻¹] | kcat/Km [1] [M⁻¹ s⁻¹] | Km [2] [µM] | kcat [2] [s⁻¹] | kcat/Km [2] [M⁻¹ s⁻¹]
wt NicA2 (Pseudomonas putida S16; A107G) | 0.335 | 0.053 | 160000 |  |  | 
wt NicA2 (Pseudomonas putida S16; A107R) | 0.83 | 0.159 | 190000 |  |  | 
wt NicA2 (Pseudomonas putida S16; A107T) | 0.285 | 0.05 | 180000 |  |  | 
wt NicA2 (Pseudomonas putida S16; A426C) | 0.23 | 0.03 | 130000 |  |  | 
wt NicA2 (Pseudomonas putida S16; F104I) | 0.24 | 0.039 | 160000 |  |  | 
wt NicA2 (Pseudomonas putida S16; F104R) | 0.27 | 0.041 | 150000 |  |  | 
wt NicA2 (Pseudomonas putida S16; F104S) | 0.25 | 0.031 | 130000 |  |  | 
wt NicA2 (Pseudomonas putida S16; F104T) | 0.33 | 0.055 | 170000 |  |  | 
wt NicA2 (Pseudomonas putida S16; F355H) | 0.22 | 0.029 | 130000 |  |  | 
wt NicA2 (Pseudomonas putida S16; G106A) | 0.28 | 0.031 | 110000 |  |  | 
B1 |  |  |  | 0.24 | 0.015 | 64000
